In assay [1] the target is T1, Ubc9 (Mus musculus, UniProt P63280).
T1 construct: endogenous in cells; host or cells: NIH 3T3
Description: Ubc9 capture by peptide immobilized on AminoLink column, Western blot. The class given is binding. The conditions noted are these: peptide-bound beads incubated with cell lysates from EJ mouse fibroblast cells; Western blot with Ubc9 antibodies. The method, then: (§1) FIGS. 9A and 9B. A. A peptide corresponding to aa 40-59 on Mdm2 binds Ubc9. mu9bs (Mdm2 Ubc9 binding site) corresponding to aa 40-59 of Mdm2 and its control scrambled counterpart peptide mu9sb (were immobilized on an AminoLink column [Pierce]). 50 μl of peptide-bound beads were incubated with 1 mg of cell lysates from EJ mouse fibroblast cells. Beads were washed extensively with 0.5M LiCl/TBS and eluates were separated on a 14% gel. B. Ubc9 binds to mu9bs in vivo. NIH 3T3 cells were transfected with wt or mutant Ubc9 binding site peptide. 36 h after transfection cells were lysed and lysates were immunoprecipitated with HA-antibodies directed against the HA-tag of transfected peptides. Upper panel depicts to Co-immunoprecipitation of Ubc9 with the wt but not the mutant peptide.
Immunobilization of peptides to an AminoLink® column (Pierce Biochemical) was carried out exactly according to the manufacturer's protocol. In brief, column was equilibrated with coupeling buffer and 1 column volume of solution containing 1 mg of peptide was incubated with gel for 6 h. Later column was drained and washed with coupeling buffer. […]
To further assess the role of the Ubc-9 binding domain in Mdm2 sumoylation, a peptide that corresponds to aa 40-59 of Mdm2 was synthesized. […] Beads coupled to the peptides were incubated with cell lysates and bound proteins were analyzed in Western blots using antibodies to Ubc9.
Background: A western blot detects proteins with antibodies after separation by electrophoresis.

For assay [2], the target named is T1, Ubc9. Put plainly: Co-immunoprecipitation of Ubc9 with HA-tagged peptide expressed in NIH 3T3 cells. In kind it is cell-based. To be noted: HA-tagged penetratin peptide vector, 36 h after transfection. How it is done:
as §1
Vectors described in Example I were used in the present example. The sequence of the Ubc-9 binding domain on Mdm2 (aa 40-59, Mdm2 Ubc9 binding site; mu9bs) in wt or in a scrambled orientation (mu9sb) was cloned in frame between EcoRI and XhoI restriction sites into a pcDNA3 that carries the penetration sequence, followed by the sequence encoding the HA-tag. All Mdm2 mutants were cloned in pBluescipt KS. Mutant Ubc9C93S was a gift from Olli Jänne.
To further confirm the ability of the peptide corresponding to mu9bs to associate with Ubc9 we carried out in vivo reactions. […]

The next assay addresses T2, GST-Mdm2 (Homo sapiens, UniProt Q00987).
T2 construct: made in house
Put plainly: In vitro conjugation of SUMO-1 to GST-Mdm2 (in vitro sumoylation). In kind it is biochemical.

The target of the next assay is T3, Mdm2 (Homo sapiens, UniProt Q00987).
T3 construct: expressed in transfected cells; host or cells: p53/Mdm2 double null cells
Put plainly: In vivo sumoylation of Mdm2 in p53/Mdm2 double null cells. The class given is cell-based. The conditions noted are these: p53/Mdm2 double null cells, Flag-Mdm2, HA-Sumo-1, increasing amounts of peptide, 36 h. The method, then: FIGS. 10A-10D. A. Time dependent Mdm2 sumoylation in vitro. Bacterially expressed and purified GST-Mdm2 was subjected to in vitro sumoylation reaction in the presence of E1, Ubc9, and ^35S-Sumos. Reaction was terminated after 10,30,50 or 60 minutes, Proteins were separated on 8% gel, Commassie stained, dryed and exposed overnight (upper panel). Lower panel depicts Commassie blue staining of Mdm2 forms. B. A peptide corresponding to the Ubc-9 binding site on Mdm2 decreases Mdm2 in vitro sumoylation of Mdm2 in a time-dependent manner. (Upper part) The specific Ubc-9-binding site peptide or a nonspecific peptide was added to the reaction for the indicated time periods. […] The lower panel depicts a Coomassie staining visualizing relative amounts of sumoylated and non-sumoylated forms of purified GST-Mdm2. C. The Mdm2 sumoylation assay was carried out in the presence of Ubc-9-binding site peptide (mu9bs) or a nonspecific peptide ([…]) which were added to the reaction at the indicated concentrations. […] D. A peptide corresponding to the Ubc-9 binding site on Mdm2 decreases Mdm2 sumoylation in vivo. […] Immunoprecipitated Mdm2 levels were detected using 2A10 antibodies (top). […]
FIG. 13A-13E. […] (Left) Immunoprecipitated Mdm2 was detected using monoclonal Mdm2 antibodies (2A10, left). […]

Assay [3] concerns Mdm2 association with p53. Description: p53 immunoprecipitation and immunoblot for bound Mdm2 form and p53 level in peptide-expressing cells. The class given is cell-based. How it is done:
FIG. 11. Ubc9 binding affects the form of Mdm2 associated with p53. Mdm2/p53 double null cells were transfected with mu9sb or the wild type form mu9bs together with p53 and Mdm2. 36 h after transfection protein extracts were prepared and used for immunoprecipitation of p53 (using D01 antibodies). Immunoprecipitated material was analyzed via immunoblotting using antibodies to Mdm2, enabling to reveal the two major forms of Mdm2, indicated.
Therefore, we transfected human fibroblasts with mu9bs or mu9sb peptides. Immunoprecipitation of p53 was followed by Western blot analysis to determine the type and level of Mdm2 bound to p53 under each of these conditions.

The next assay has as its target T4, Ubc9 binding to Mdm2 (Homo sapiens, UniProt Q00987).
T4 construct: made in house; host or cells: GST-Mdm2: bacteria; Ubc9: in vitro translation
Put plainly: In vitro binding of Ubc9 to GST-Mdm2. To be noted: GST-Mdm2 phosphorylated by active p38 kinase. The method, then: FIGS. 17A and 17B. A. p19^ARF decreases Ubc9 binding to Mdm2. Bacterially expressed and purified GST-Mdm2 (1 μg) was incubated with ^35S-labeled in vitro translated p19^ARF and Ubc9 at the indicated ratios. After 30 min of incubation GSH beads bound-GST-Mdm2 were washed and separated on a 12% SDS-PAGE. Gel was dried and subjected to autoradiograph, depicting relative amounts of Ubc9 and p19^ARF bound to Mdm2. B. Bacterially expressed and purified GST-Mdm2 (1 μg) was phosphorylated by purified form of active p38 kinase as indicated. Phosphorylated or un-phosphorylated Mdm2 was incubated for 30 min with in vitro translated UbcH5b and Ubc9 (25 μl). Beads were washed and separated on a 12% SDS-PAGE. Gel was dried and exposed to X-ray film. Position of Ubc9 and UbcH5b is shown.
A prerequisite for Mdm2 sumoylation is the association of Ubc9, the SUMO conjugating enzyme, with Mdm2, which enables subsequent conjugation of SUMO-1 to Mdm2. Inhibition of Ubc9's association with Mdm2 attenuates Mdm2 sumoylation. Given the effect of p19^ARF on Mdm2 sumoylation, we proceeded to determine whether p19^ARF may alter Ubc9 binding to Mdm2. To this end we performed an in vitro binding assay, using in vitro translated p19^ARF and Ubc-9, as indicated. […] We next assessed possible changes in Ubc9 binding to Mdm2 upon its phosphorylation by p38.

T2 sequence (Q00987 whole entry): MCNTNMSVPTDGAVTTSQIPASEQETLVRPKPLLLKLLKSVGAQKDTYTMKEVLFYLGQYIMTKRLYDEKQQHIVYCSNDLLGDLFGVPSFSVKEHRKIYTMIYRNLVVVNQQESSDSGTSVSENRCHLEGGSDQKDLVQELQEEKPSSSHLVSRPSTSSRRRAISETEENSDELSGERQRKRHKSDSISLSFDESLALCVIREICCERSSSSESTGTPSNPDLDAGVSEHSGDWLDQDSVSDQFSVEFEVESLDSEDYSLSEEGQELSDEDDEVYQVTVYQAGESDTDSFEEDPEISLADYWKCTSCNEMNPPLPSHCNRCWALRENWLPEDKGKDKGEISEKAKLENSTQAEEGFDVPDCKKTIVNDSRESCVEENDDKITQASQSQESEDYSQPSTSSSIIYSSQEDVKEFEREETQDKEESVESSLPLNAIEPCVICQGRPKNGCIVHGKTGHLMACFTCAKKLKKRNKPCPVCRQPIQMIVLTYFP
T1 sequence (P63280 whole entry): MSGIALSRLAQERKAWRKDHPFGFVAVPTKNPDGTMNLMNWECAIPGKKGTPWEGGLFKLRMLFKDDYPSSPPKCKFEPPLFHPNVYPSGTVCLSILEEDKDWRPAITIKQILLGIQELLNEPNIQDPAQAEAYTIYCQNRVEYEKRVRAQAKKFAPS
T3 sequence (Q00987 whole entry): as the sequence (Q00987 whole entry) above
T4 sequence (Q00987 whole entry): as above

For “mu9bs: peptide that corresponds to aa 40-59 of Mdm2 (mdm2 Ubc9 binding site) (SVGAQKDTYTMKEVLFYLGQ)”, the “capture of Ubc9 by column-coupled peptide” value with Ubc9 [1] was “captured Ubc9”. Also, the “association of expressed peptide with Ubc9 in vivo” value with Ubc9 [2] is listed as “associated with Ubc9”. Also, the “Mdm2 sumoylation in vitro, increasing concentrations of peptide” value with GST-Mdm2 is given as “dose-dependent decrease of Mdm2 sumoylation”. The “Mdm2 sumoylation in vitro, peptide added for different periods of time” value in the assay with GST-Mdm2 (peptide present 0-50 min of 60 min reaction) was “sufficient to attenuate Mdm2 sumoylation in a manner that coincided with the length of the incubation”. In the assay with Mdm2, the “degree of Mdm2 sumoylation in vivo upon peptide co-expression” value is on record as “dose-dependent decrease in the degree of Mdm2 sumoylation in vivo”. Besides, in assay [3], the “overall level of p53 expression” value is “increased level of p53”. Besides, the “form of Mdm2 (75 kDa non-sumoylated / 90 kDa sumoylated) associated with p53” value in assay [3] (peptide expression, p53 immunoprecipitation) is “p53 association only with the non-sumoylated form of Mdm2”.
In the case of “p38: purified active p38 kinase that phosphorylates Mdm2”, in the assay with Ubc9 binding to Mdm2, the “Ubc9 binding to Mdm2 upon in vitro phosphorylation of Mdm2” value was “marked decrease in Ubc9 binding to Mdm2”.

For the origin of these results see US20020031818A1, “Modification of Mdm2 activity” (priority 2000, published 2002).
